Reference: US20100240066A1 (MCGILL UNIVERSITY, published 2010)
Where no end group is shown, it is not given here.

T1: VE-cadherin/Fc chimeric protein (UniProt P33151 48-593)
T1 construct: Bought from R&D Systems; also called vascular endothelial (VE)-cadherin/Fc chimeric protein; not shown: Fc part not described
T1 sequence (looked up): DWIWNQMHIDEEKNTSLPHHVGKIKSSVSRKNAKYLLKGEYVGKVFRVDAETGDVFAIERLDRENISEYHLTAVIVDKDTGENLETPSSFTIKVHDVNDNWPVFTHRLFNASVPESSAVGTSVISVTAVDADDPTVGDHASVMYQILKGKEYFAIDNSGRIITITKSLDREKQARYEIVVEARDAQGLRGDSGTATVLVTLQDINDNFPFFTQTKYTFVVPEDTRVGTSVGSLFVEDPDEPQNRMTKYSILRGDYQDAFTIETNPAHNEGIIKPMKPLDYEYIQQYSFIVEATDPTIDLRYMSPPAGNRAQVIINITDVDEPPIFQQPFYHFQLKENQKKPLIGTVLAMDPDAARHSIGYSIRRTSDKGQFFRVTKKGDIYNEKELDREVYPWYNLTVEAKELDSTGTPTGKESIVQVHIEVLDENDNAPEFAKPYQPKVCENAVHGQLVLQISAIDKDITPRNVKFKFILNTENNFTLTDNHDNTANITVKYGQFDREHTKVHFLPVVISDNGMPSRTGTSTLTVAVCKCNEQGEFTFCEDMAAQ

T2: E-cadherin/Fc chimeric protein (human, UniProt P12830 155-707)
T2 construct: range 155-707; Bought from R&D Systems; also called E-cad/Fc; human E-cadherin/Fc chimeric protein; not shown: Fc region of human IgG1
T2 sequence (looked up): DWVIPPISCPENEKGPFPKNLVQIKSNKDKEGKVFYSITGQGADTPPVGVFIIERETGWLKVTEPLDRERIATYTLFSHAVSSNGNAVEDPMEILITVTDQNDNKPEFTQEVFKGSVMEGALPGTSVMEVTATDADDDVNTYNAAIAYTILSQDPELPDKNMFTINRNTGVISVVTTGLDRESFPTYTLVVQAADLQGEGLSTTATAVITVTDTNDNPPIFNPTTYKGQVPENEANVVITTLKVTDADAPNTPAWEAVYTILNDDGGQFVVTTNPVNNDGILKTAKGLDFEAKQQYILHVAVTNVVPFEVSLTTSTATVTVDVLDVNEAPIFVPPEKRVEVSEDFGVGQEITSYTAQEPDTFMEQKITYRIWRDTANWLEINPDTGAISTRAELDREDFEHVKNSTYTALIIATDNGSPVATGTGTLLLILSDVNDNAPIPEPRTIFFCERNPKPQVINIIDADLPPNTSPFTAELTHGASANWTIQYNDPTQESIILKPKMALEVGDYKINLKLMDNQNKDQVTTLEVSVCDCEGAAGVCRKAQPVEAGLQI

T3: N-cadherin/Fc chimeric protein (human, UniProt P19022 160-724)
T3 construct: range 160-724; Bought from R&D Systems; also called N-cad/Fc; human N-cadherin/Fc chimeric protein; not shown: Fc region of human IgG1
T3 sequence (looked up): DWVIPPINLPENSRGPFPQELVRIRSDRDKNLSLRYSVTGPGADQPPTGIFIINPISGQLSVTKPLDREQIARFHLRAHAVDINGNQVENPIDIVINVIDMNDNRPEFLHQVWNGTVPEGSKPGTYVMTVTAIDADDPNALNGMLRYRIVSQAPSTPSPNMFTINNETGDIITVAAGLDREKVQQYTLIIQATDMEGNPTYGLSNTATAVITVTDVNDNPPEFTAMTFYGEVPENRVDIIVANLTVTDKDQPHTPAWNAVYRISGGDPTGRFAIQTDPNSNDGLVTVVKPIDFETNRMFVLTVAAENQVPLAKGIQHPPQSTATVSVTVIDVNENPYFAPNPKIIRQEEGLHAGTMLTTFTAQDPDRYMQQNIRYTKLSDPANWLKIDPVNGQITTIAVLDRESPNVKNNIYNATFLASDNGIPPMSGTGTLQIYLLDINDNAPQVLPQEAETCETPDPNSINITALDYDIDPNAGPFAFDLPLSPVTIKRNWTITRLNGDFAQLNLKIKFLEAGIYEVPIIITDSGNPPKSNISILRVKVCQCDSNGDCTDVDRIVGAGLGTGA

B1: phage clone NoCa1 (peptide)
peptide: WYVCVGAHC
modifications: not fully specified; cysteine pairing not given here; also: displayed on M13 phage pIII
notes: whole phage in the assay
B2: phage clone NoCa11 (peptide)
peptide: WQVCVGAHC
modifications: not fully specified; cysteine pairing not given here; also: displayed on M13 phage pIII
notes: whole phage in the assay

Experiments:
[1] = molecular target: T1, VE-cadherin/Fc chimeric protein; assay: surface plasmon resonance (Biacore), chimera captured by anti-human IgG
Description: The binding of representative peptide modulating agents to either N- or VE-cadherin/Fc chimeric proteins was assessed using a BIAcore X™ Biosensor (Pharmacia Ltd., Sweden). Goat anti-human IgG recognizing N- and VE-cadherin/Fc chimeric proteins (R&D Systems, Minneapolis, Minn.) was immobilized on a CM5 sensor chip (Biacore S51) using standard amine-coupling method at 25° C. HBS-P buffer (10 mM HEPES, 0.15 M NaCl, 0.005% p20, pH 7.4) was used as the running buffer. The carboxymethyl dextran surface was activated with a 7 min injection of a 1:1 ratio of 0.4 M EDC and 0.1 M NHS. The goat anti-human IgG (Caltag Lab.) was coupled to the surface with a 7 min injection diluted in 10 mM sodium acetate, pH 5.0 to a final concentration 80 ug/ml. Remaining activated groups were blocked with a 7 min injection of 1 M ethanolamine, pH 8.5. N- and VE-cadherin/Fc chimeric proteins were dissolved in buffer containing 50 mM Tris HCl, 150 mM NaCl, and 1.2 mM CaCl₂ pH 7.5 to a concentration of 0.2 μM and captured on spots 1 and 2 at a flow rate of 30 μl/min for 30 min with resulting density 927 RU for N-cadherin/Fc chimeric protein and 1008 RU for VE-cadherin/Fc chimeric protein. […]
(§1) The binding of the linear peptide H-[…]-NH₂ (SEQ ID NO: 16) to N- and VE-cadherin/Fc chimeric proteins was analyzed by surface plasma resonance.

[2] = molecular target: T2, E-cadherin/Fc chimeric protein; assay: summary table, column Peptide Binds to E-cad/Fc; assay not named
[3] = molecular target: T3, N-cadherin/Fc chimeric protein; assay: surface plasmon resonance (Biacore), N-cadherin/Fc captured by anti-human IgG, peptide as analyte, 1.2 mM CaCl2, 25 C
Description: The binding of representative peptide modulating agents to either N- or VE-cadherin/Fc chimeric proteins was assessed using a BIAcore X™ Biosensor (Pharmacia Ltd., Sweden). Goat anti-human IgG recognizing N- and VE-cadherin/Fc chimeric proteins (R&D Systems, Minneapolis, Minn.) was immobilized on a CM5 sensor chip (Biacore S51) using standard amine-coupling method at 25° C. HBS-P buffer (10 mM HEPES, 0.15 M NaCl, 0.005% p20, pH 7.4) was used as the running buffer. The carboxymethyl dextran surface was activated with a 7 min injection of a 1:1 ratio of 0.4 M EDC and 0.1 M NHS. The goat anti-human IgG (Caltag Lab.) was coupled to the surface with a 7 min injection diluted in 10 mM sodium acetate, pH 5.0 to a final concentration 80 ug/ml. Remaining activated groups were blocked with a 7 min injection of 1 M ethanolamine, pH 8.5. N- and VE-cadherin/Fc chimeric proteins were dissolved in buffer containing 50 mM Tris HCl, 150 mM NaCl, and 1.2 mM CaCl₂ pH 7.5 to a concentration of 0.2 μM and captured on spots 1 and 2 at a flow rate of 30 μl/min for 30 min with resulting density 927 RU for N-cadherin/Fc chimeric protein and 1008 RU for VE-cadherin/Fc chimeric protein.
The linear peptide H-[…]-NH₂ (SEQ ID NO: 16) and the control linear peptide H-[…]-NH₂ (SEQ ID NO: 58) were passed over surfaces coated with captured N- and VE-cadherin/Fc chimeric proteins in running buffer containing 50 mM Tris-HCl, 150 mM NaCl, and 1.2 mM CaCl₂, pH 7.5 at concentrations ranging from 100-1.56 uM. The experiment was performed at a flow rate 90 ul/min at 25° C. […] All responses were referenced for reference surface and blank injections of running buffer.
as §1

[4] = molecular target: T1, VE-cadherin/Fc chimeric protein; assay: phage ELISA
Description: (§2) The phage clones shown to bind to the N-cadherin/Fc chimeric protein by ELISA were also evaluated for their ability to bind to E-cadherin/Fc and VE-cadherin/Fc chimeric proteins. The phage clones shown to bind to the E-cadherin/Fc chimeric protein by ELISA were also evaluated for their ability to bind to N-cadherin/Fc and VE-cadherin/Fc chimeric proteins. The same ELISA protocol described in the previous section was used to perform this evaluation with the exception that the wells were coated with either 100 ng N-cadherin/Fc, E-cadherin/Fc or VE-cadherin/Fc chimeric protein (R&D Systems, Minneapolis, Minn.).

[5] = molecular target: T2, E-cadherin/Fc chimeric protein; assay: phage ELISA
Description: as §2

[6] = molecular target: T3, N-cadherin/Fc chimeric protein; assay: phage ELISA, 1.2 mM calcium
Description: (§3) The binding of each clone to the cadherin/Fc chimeric proteins was confirmed by ELISA. Wells of ProBind microtiter plates (Falcon) were coated with either N-cadherin/Fc or E-cadherin/Fc chimeric protein (100 ng/well) or human IgG1 (which contains the Fc fragment) (100 ng/well). After blocking the nonspecific sites with TBS containing 3% BSA and 1.2 mM CaCl₂ for 1 h at 37° C., phage clones (10⁹ pfu) diluted in TBST containing 3% BSA and 1.2 mM CaCl₂ (100 μl/well). Non-coated wells were also used to exclude any phage that bound to the plastic surface. After 1 h incubation at room temperature, wells were washed 3 times with TBST containing 3% BSA and 1.2 mM CaCl₂. M13 phage without any insert were used to control the non-specific binding of the phage itself to the target. Monoclonal anti-M13 antibody conjugated to horseradish peroxidase (Amersham Biosciences, Piscataway, N.J.) was diluted in TBST containing 3% BSA and 1.2 mM CaCl₂ (1:2,000) and added to each well (100 μl/well). After 1 h incubation at room temperature, wells were washed three times with TBST containing 3% BSA and 1.2 mM CaCl₂ and once with TBS containing 1.2 mM CaCl₂. Horseradish peroxidase substrate, TMB (Sigma), was added to each well (100 μl/well and after color development the reaction was stopped by addition of 100 μl 0.5 M sulphuric acid to each well. The intensity of the color was measured at 450 nm.
An ELISA was performed in the presence of either 1.2 mM calcium or 2 mM EDTA. […] The signal obtained in the presence of EDTA was lower than in the presence of calcium.

[7] = molecular target: T3, N-cadherin/Fc chimeric protein; assay: summary table, column Peptide Binds to N-cad/Fc; assay not named
[8] = molecular target: T1, VE-cadherin/Fc chimeric protein; assay: phage ELISA, in the absence or presence of calcium
Description: as §2

[9] = molecular target: T2, E-cadherin/Fc chimeric protein; assay: phage ELISA, in the absence or presence of calcium
Description: as §2

[10] = molecular target: T3, N-cadherin/Fc chimeric protein; assay: phage ELISA, 1.2 mM calcium; remark: listed apart in the source
Description: as §3

Binder	binding result [4]	binding result [5]	binding result [6]	other results
H-SWTLYTPSGQSK-NH2 (Synthetic linear peptide) [H-SWTLYTPSGQSK-NH2]				binding result [1]: no binding (tested: 100-1.56 uM); binding result [2]: no binding; Kd [3]: 66 µM; koff [3]: 0.407 s⁻¹; kon [3]: 6100 M⁻¹ s⁻¹
KWELTYFANSFP (whole phage in the assay) [phage clone Nc 12-a3]	no binding (tested: 10^9 pfu)	no binding (tested: 10^9 pfu)	binds	
AWQVHYSYVASS (whole phage in the assay) [phage clone Nc 12-a7]	no binding (tested: 10^9 pfu)	binds	binds	
SWLAVWPATGAS (whole phage in the assay) [phage clone Nc 12-a10]	no binding (tested: 10^9 pfu)	binds	binds	
NWFIDFPVYPPL (whole phage in the assay) [phage clone Nc 12-a1]	no binding (tested: 10^9 pfu)	no binding (tested: 10^9 pfu)	binds	
H-SRTLYTPSGQSK-NH2 [H-SRTLYTPSGQSK-NH2]				binding result [7]: no binding; binding result [1]: no binding (tested: 100-1.56 uM)
EWMIHYDSALTS (not fully specified, whole phage in the assay) [phage clone Nc 12-a6]	no binding (tested: 10^9 pfu)	binds	binds	
B1				binding result [8]: no binding (tested: 10^9 pfu); binding result [9]: no binding (tested: 10^9 pfu); binding result [10]: binds
B2				binding result [8]: no binding (tested: 10^9 pfu); binding result [9]: no binding (tested: 10^9 pfu); binding result [10]: binds
